According to PMC9245664 (Proceedings of the National Academy of Sciences of the …, 2022):
Numbering of substitutions follows the chain as printed.

What was measured:
Assay in all cases: NMR titration
[1] = target: T1, Wzc_(CDΔC,ΔCys,Val466Cys) (E. coli (K-12), UniProt P76387 447-704, Cys544Ser | Cys563Ser | Val466Cys)
T1 sequence: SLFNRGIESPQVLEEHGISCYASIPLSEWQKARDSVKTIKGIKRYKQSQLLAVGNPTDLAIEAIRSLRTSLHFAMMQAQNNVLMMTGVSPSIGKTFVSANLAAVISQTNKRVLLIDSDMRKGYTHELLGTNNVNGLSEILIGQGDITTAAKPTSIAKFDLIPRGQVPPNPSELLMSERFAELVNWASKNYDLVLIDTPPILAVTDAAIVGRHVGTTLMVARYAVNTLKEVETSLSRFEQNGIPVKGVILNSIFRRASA

[2] = target: T2, Wzc_(CDΔC,ΔCys,Ser516Cys) (E. coli (K-12), UniProt P76387 447-704, Cys544Ser | Cys563Ser | Ser516Cys)
T2 sequence: T1 sequence with C20V, S70C

[3] = target: T3, Wzc_(CDΔC,ΔCys,Gln523Cys) (E. coli (K-12), UniProt P76387 447-704, Cys544Ser | Cys563Ser | Gln523Cys)
T3 sequence: T1 sequence with C20V, Q77C

[4] = target: T4, Wzc_(CDΔC,ΔCys,Lys556Cys) (E. coli (K-12), UniProt P76387 447-704, Cys544Ser | Cys563Ser | Lys556Cys)
T4 sequence: T1 sequence with C20V, K110C

[5] = target: T5, Wzc_(CDΔC,ΔCys) (Cys544Ser/Cys563Ser) (E. coli (K-12), UniProt P76387 447-704, Cys544Ser | Cys563Ser)
T5 sequence: T1 sequence with C20V

[6] = target: T6, Wzc_(CDΔC,ΔCys,Leu505Cys) (E. coli (K-12), UniProt P76387 447-704, Cys544Ser | Cys563Ser | Leu505Cys)
T6 sequence: T1 sequence with C20V, L59C

Kd [1]: 8.9 ± 0.3 µM
Kd [2]: 11.3 ± 0.7 µM
Kd [3]: 16.9 ± 0.5 µM
Kd [4]: 7.3 ± 0.4 µM
Kd [5]: 15.2 ± 0.6 µM
Kd [6]: 43.8 ± 1.3 µM
B1: full-length E. coli (K-12) Wzb, wild type (enzyme)
chain: MFNNILVVCVGNICRSPTAERLLQRYHPELKVESAGLGALVGKGADPTAISVAAEHQLSLEGHCARQISRRLCRNYDLILTMEKRHIERLCEMAPEMRGKVMLFGHWDNECEIPDPYRKSRETFAAVYTLLERSARQWAQALNAEQV
